B1: DP4F2 (VHH)
VHH: EVQLQASGGGFVQPGGSLRLSCAASGTTYSERVMGWFRQAPGKEREFVSAISSGQSDQTYYADSVKGRFTISRDNSKNTVYLQMNSLRAEDTATYYCAPFAGDANLPREWYWGQGTQVTVSS
B2: BP2A6 (VHH)
VHH: EVQLQASGGGFVQPGGSLRLSCAASGQTFSHYIMGWFRQAPGKEREFVSAISAGQGHATYYADSVKGRFTISRDNSKNTVYLQMNSLRAEDTATYYCAKYQDTIAPLYWGQGTQVTVSS
B3: AP1C3 (VHH)
VHH: EVQLQASGGGFVQPGGSLRLSCAASGRTYRGYSMGWFRQAPGKEREFVSAISSWSDDWTAYADSVKGRFTISRDNSKNTVYLQMNSLRAEDTATYYCAWQYIDEIQYYWGQGTQVTVSS
B4: AP1D4 (Fc fusion)
chain: EVQLQASGGGFVQPGGSLRLSCAASGHTFDAHRMGWFRQAPGKEREFVSAISSWGQSSTYYADSVKGRFTISRDNSKNTVYLQMNSLRAEDTATYYCAQTDEGNQYVYWGQGTQVTVSS
B5: AP1A5 (Fc fusion)
chain: EVQLQASGGGFVQPGGSLRLSCAASGSTASHYTMGWFRQAPGKEREFVSAISSGRDHAKQYADSVKGRFTISRDNSKNTVYLQMNSLRAEDTATYYCAYEEINATQKDTLYWGQGTQVTVSS

We go through five molecules from paper PMC11793827 (2025).

The target in the assay is WT SARS-CoV-2 RBD (SARS-CoV-2, UniProt P0DTC2 14-1211). The experiment in a line: ELISA. Background: An ELISA detects its analyte on a solid surface through an enzyme-linked reagent.
The Kd is the equilibrium constant for the complex coming apart. Lower therefore signals higher affinity. B1 showed a Kd of 10.7 nM.

B2 gave a dissociation constant (Kd) of 0.06 nM.

On to B3, for which the Kd is 0.08 nM.

Take B4: binding was characterised by a dissociation constant (Kd) of 0.97 nM. This Kd is about 12-fold higher than that of the molecule before.

For B5, binding was characterised by a dissociation constant (Kd) of 1.19 nM.
